The target in assay [1] is Pph with a C-terminal strep-tag and an N-terminal his-tag (His10-Ppr(Δ1-601)-StrepTag II, pET16b-Pph) (R. centenaria). In words: SEC; crude soluble extract of E. coli C41 (DE3) with pET16b-Pph on Sephadex G-200, non-reducing conditions, 20 mM Tris pH 7.4, 40 mM NaCl, 20% glycerol; fractions by SDS-PAGE and Western blot against strep tag II. On the technique in general: SEC sorts molecules by how far they enter the pores of the column.

For assay [2] the target is unchanged. In words: resonant mirror spectroscopy (Iasys biosensor cuvette); purified Pph (50 μg/ml) immobilised on an aminosilane cuvette (via strep-tag to streptactin by the results); increasing concentrations of purified Rc-CheW, 30 minutes each; fractional saturation, Scatchard plot.
Assay [3] deals with R. centenaria CheW (Rc-CheW) containing an N-terminal his-tag (R. centenaria) (UniProt P72251). As to the kind of experiment: pull-down; as a1, residual ATP hydrolyzed by adding apyrase.
Assay [4] has the same target. In words: pull-down; as a1, with increasing amounts of added ATP (0-20 mM).
For assay [5] the target is unchanged. In words: pull-down; 50 μg purified his-Rc-CheW (bait) mixed with one in vitro translated [35S]-labelled prey, overnight at 37°C, bound to Cu(II)-Sepharose in 20 mM sodium phosphate pH 7.7, 200 mM NaCl, 50 mM imidazole; eluted with 500 mM imidazole; phosphorimaging; no ATP added (low ATP level, 2 mM, from the translation reaction).

One may read the stoichiometry N as a count of units in the complex or per binding partner. Broadly, the Kd is the constant that tells how readily two partners part at equilibrium. A low value points to tighter binding.

Sequence of UniProt P72251 (P72251 entry or part of it): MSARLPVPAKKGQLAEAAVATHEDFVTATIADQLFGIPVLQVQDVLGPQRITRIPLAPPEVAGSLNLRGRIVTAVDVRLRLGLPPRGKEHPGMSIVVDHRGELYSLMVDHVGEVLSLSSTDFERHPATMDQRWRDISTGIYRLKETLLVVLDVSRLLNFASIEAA

Substance “Pph with a C-terminal strep-tag and an N-terminal his-tag (His10-Ppr(Δ1-601)-StrepTag II, pET16b-Pph) (domain or fragment)” came in with a stoichiometry N in assay [1] of 2.

Consider “R. centenaria CheW (Rc-CheW) containing an N-terminal his-tag (from UniProt P72251 1-165) (natural protein)”, for which the Kd in assay [2] came to 130 nM. In assay [3], “histidine kinase domain Pph of Ppr, in vitro translated and [35S]-methionine labelled (from pSK4) (domain or fragment)” had a bound Pph with apyrase (% of input) of 5%. In assay [4], this substance had a Rc-CheW-bound Pph with added ATP (% of input) of 24%. The substance further had a co-elution rate (% of input Pph) in assay [5] of 13%.

The record behind these values is PMC2993699.
